Some targets named below: IMP2 KH3 VL MUT (KH34) (UniProt Q9Y6M1); IMP2 KH4 VL MUT (KH34) (UniProt Q9Y6M1); IMP2 KH34 double VL MUT (UniProt Q9Y6M1).
Assay in all cases: EMSA
Conditions in all cases: EMSA: 100 pM RNA, 10 mM Tris, 100 mM NaCl, 0.1 mM EDTA, 0.01 mg/mL tRNA, 50 ug/mL heparin, 0.01% IGEPAL CA630, room temperature, 3 h; pH not stated
On the technique in general: Mobility shift assays separate free from complexed probe on a gel.

Chain of IMP2 KH3 VL MUT (KH34) (Q9Y6M1 425-581): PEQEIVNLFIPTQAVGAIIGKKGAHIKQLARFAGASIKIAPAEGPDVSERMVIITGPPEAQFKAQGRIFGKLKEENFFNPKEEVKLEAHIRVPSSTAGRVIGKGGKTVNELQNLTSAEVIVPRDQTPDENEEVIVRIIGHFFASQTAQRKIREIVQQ
Chain of IMP2 KH34 double VL MUT (Q9Y6M1 whole entry): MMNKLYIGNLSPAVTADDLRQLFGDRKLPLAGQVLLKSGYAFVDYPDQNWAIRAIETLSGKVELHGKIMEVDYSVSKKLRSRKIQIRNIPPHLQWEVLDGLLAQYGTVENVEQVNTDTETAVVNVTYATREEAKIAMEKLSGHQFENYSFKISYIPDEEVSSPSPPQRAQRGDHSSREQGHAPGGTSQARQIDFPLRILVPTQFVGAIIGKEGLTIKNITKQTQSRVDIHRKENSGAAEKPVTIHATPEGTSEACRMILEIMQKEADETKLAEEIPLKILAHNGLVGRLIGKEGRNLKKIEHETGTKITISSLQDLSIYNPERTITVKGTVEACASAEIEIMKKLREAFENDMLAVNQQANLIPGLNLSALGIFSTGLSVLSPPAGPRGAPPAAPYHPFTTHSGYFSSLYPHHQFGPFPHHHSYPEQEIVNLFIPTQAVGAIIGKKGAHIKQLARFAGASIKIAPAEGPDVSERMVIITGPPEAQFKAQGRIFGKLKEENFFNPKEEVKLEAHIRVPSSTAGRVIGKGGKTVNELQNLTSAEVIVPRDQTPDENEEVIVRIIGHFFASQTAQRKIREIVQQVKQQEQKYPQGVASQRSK
Chain of IMP2 KH4 VL MUT (KH34) (Q9Y6M1 whole entry): as above

“ACCGGACUGUUACCAACACCCACACCCC [C28 beta-actin zipcode WT]”: the Kd (usually the concentration at which binding is half-saturated) in the data set with IMP2 KH3 VL MUT (KH34) was determined as 7.3 nM; with IMP2 KH4 VL MUT (KH34), 346 nM; in the data set with IMP2 KH34 double VL MUT it was 26.5 nM.

The record behind these values is publication PMC6768852.
